Source: patent publication US20070134693A1 (published 2007)

Target: T1, M-tropic HIV-1MN envelope glycoprotein gp120 (HIV-1 MN, UniProt P05877 32-513)
T1 construct: also called HIV-1 gp120; HIV-MN gp120
Experiment: fluorescent bead adhesion assay on K562-DC-SIGN cells

B1: DC-SIGN (receptor)
chain: MSDSKEPRLQQLGLLEEEQLRGLGFRQTRGYKSLAGCLGHGPLVLQLLSFTLLAGLLVQVSKVPSSISQEQSRQDAIYQNLTQLKAAVGELSEKSKLQEIYQELTQLKAAVGELPEKSKLQEIYQELTRLKAAVGELPEKSKLQEIYQELTWLKAAVGELPEKSKMQEIYQELTRLKAAVGELPEKSKQQEIYQELTRLKAAVGELPEKSKQQEIYQELTRLKAAVGELPEKSKQQEIYQELTQLKAAVERLCHPCPWEWTFFQGNCYFMSNSQRNWHDSITACKEVGAQLVVIKSAEEQNFLQLQSSRSNRFTWMGLSDLNQEGTWQWVDGSPLLPSFKQYWNRGEPNNVGEEDCAEFSGNGWNDDKCNLAKFWICKKSAASCSRDEEQFLSPAPATPNPPPA
notes: whole, on cells; also called K562-DC-SIGN; THP-1-DC-SIGN
- binding result: binds
